According to paper PMC12394070:

Molecular target: HA–TDP-43–FKBP

**Q.** With FRB–PML–Myc as the substance, how does the solubility assay: share of TDP-43 in the insoluble fraction after heat stress with rapamycin (80% without rapamycin) (% of TDP-43 in the insoluble fraction) read?
**A.** 20
